Holding throughout (assay): SPR; set-up for the IgG1 comparator not stated
(Surface plasmon resonance follows binding to a sensor surface in real time, without labels.)

For assay [1], the target named is Human CD32b (human) (UniProt P31994).
Assay [2] addresses Human CD16a (human) (UniProt P08637).
For assay [3], the target named is Human CD32a (human) (UniProt P12318).
For assay [4], the target named is Human CD16b (human) (UniProt O75015).
Assay [5] has as its target Human CD64 (human) (UniProt P12314).

Sequence of Human CD16a (human) (P08637 17-208 limits assumed): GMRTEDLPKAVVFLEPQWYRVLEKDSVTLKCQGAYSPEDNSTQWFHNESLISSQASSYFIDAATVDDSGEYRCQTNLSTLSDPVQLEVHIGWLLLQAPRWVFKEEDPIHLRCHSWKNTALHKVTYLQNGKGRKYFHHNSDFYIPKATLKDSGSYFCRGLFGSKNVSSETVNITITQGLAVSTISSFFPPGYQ
Sequence of Human CD32a (human) (P12318 36-218 limits assumed): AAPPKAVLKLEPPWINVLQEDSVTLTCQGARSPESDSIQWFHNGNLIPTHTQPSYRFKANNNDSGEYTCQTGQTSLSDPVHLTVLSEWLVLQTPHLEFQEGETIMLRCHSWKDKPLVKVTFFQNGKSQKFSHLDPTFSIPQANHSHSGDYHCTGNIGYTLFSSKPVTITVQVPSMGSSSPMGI
Sequence of Human CD32b (human) (P31994 46-217 limits assumed): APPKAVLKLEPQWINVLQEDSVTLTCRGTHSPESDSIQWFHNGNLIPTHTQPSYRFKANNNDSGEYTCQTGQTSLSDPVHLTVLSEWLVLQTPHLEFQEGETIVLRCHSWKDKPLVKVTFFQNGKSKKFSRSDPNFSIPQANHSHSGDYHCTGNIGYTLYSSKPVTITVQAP
Sequence of Human CD64 (human) (P12314 16-288 limits assumed): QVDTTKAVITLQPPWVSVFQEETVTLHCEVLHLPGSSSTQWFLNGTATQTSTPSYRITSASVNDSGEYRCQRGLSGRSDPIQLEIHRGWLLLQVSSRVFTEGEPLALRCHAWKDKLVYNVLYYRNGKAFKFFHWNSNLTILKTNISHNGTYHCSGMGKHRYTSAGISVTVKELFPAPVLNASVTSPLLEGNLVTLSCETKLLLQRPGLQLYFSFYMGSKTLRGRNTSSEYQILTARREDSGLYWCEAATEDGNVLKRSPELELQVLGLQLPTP
Sequence of Human CD16b (human) (O75015 17-200 limits assumed): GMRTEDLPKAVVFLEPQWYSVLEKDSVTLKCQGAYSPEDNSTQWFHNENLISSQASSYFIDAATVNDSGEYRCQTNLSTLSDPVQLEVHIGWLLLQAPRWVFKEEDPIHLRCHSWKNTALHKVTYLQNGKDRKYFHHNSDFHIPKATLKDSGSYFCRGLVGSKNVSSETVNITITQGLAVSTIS

On to Full length human IgG1 antibody, for which the Kd amounted to 1180 nM in assay [1]; 630 nM in assay [2]; 379 nM in assay [3]; 2410 nM in assay [4]; 0.24 nM in assay [5].

One may read the Kd as the constant that tells how readily two partners part at equilibrium. Read a low Kd as tighter binding.

These data come from patent US20160369002A1.
